From patent publication US20230106715A1 (BIOSION, published 2023)
Where two headings read alike, the source gives them in different places.

T1: cynomolgus monkey Siglec15-his protein (cynomolgus monkey)
T1 construct: In house made; also called Cynomolgus Siglec15-his; cynomolgus Siglec15
T1 chain: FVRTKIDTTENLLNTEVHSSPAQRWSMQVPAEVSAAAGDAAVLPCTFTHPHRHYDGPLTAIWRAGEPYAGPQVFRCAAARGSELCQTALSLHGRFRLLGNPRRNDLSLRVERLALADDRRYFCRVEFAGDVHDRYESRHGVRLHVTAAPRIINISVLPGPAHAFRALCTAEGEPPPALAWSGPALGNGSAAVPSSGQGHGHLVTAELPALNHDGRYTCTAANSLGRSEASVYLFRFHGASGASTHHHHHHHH


What was measured:
[1] = target: T2, human Siglec15-Fc protein (human); experiment: competitive ELISA: coated human Siglec15-Fc, blocked ligand biotin-labeled human LRRC4C-Fc
T2 construct: In house made; also called recombinant human Siglec15 protein with human IgG1 Fc at the C-terminus
T2 sequence (chain, as listed by the source limits assumed): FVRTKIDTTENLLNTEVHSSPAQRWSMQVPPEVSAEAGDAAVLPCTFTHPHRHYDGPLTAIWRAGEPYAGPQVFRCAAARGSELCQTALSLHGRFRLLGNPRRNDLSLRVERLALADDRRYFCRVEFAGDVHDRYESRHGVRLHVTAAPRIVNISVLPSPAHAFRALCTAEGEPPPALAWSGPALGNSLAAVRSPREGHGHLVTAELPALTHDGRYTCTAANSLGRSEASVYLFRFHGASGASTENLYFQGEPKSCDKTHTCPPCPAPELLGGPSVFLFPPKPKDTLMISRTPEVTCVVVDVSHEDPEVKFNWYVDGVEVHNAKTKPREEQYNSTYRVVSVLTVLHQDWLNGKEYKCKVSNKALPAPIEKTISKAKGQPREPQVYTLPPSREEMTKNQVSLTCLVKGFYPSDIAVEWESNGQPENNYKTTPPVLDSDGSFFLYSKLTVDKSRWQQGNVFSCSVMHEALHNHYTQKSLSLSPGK
Method: Serially diluted anti-Siglec15 antibodies or the controls (starting at 66.67 nM with a 5-fold serial dilution) in PBST with 2.5% w/v non-fatty milk were added to the Siglec15-Fc bound plates, 100 μl per well, and incubated with the human Siglec15-Fc protein at 37° C. for 40 minutes. Plates were washed 4 times again using wash buffer, then added and incubated for 40 minutes at 37° C. with 100 μl/well 290 ng/ml biotin-labeled human LRRC4C-Fc protein (prepared in-house with SEQ ID NO: 23). Plates were washed again using wash buffer. Thereafter, the plates were added with 100 μl/well streptavidin conjugated HRP (1:5000 dilution in PBST buffer, Jackson Immunoresearch, Cat #016-030-084) and incubated for 40 minutes at 37° C. Plates were washed again using wash buffer. Finally, TMB was added and the reaction was stopped using 1M H₂SO₄, and the absorbance of each well was read on a microplate reader using dual wavelength mode with 450 nm for TMB and 630 nm as the reference wavelength, then the OD (450-630) values were plotted against antibody concentration. Data was analyzed using Graphpad Prism software and IC₅₀ values were reported.
The mouse anti-Siglec15 antibodies of the disclosure were also tested in ligand blocking ELISA and benchmark blocking ELISA following the protocols described above.

[2] = target: T1, cynomolgus monkey Siglec15-his protein; experiment: indirect ELISA on coated cynomolgus Siglec15-his
Method: (§1) The anti-Siglec15 antibodies' cross-reactions to cynomolgus or mouse Siglec15 proteins were measured. Briefly, 96-well micro plates were coated with 100 μl of 2 μg/ml cynomolgus Siglec15-his protein (in house made with SEQ ID NO: 21), or 2 μg/ml mouse Siglec15-his protein (in house made with SEQ ID NO: 22) in carbonate/bicarbonate buffer (pH 9.6) for 2 hours at 37° C. ELISA plates were washed once with wash buffer (PBS+0.05% v/v Tween-20, PBST) and then blocked with 200 μl/well blocking buffer (5% w/v non-fatty milk in PBST) overnight at 4° C. Plates were washed 4 times and incubated with 100 μl serially diluted anti-Siglec15 antibodies of the disclosure or controls (starting at 66.7 nM, 5-fold serial dilution in PBST with 2.5% w/v non-fatty milk) for 40 minutes at 37° C. ELISA plates were washed 4 times again and incubated with Peroxidase AffiniPure Goat Anti-Human IgG, F(ab)₂ fragment specific (1:5000 dilution in PBST buffer, Jackson Immunoresearch, Cat #109-035-097, 100 μl/well) for 40 minutes at 37° C. After a final wash, plates were incubated with 100 μl/well TMB (Innoreagents, Cat #TMB-S-002). The reaction was stopped 4 minutes later at room temperature with 50 μl 1M H₂SO₄, and the absorbance of each well was read on a microplate reader using dual wavelength mode with 450 nm for TMB and 630 nm as the reference wavelength, then the OD (450-630) values were plotted against antibody concentration. Data was analyzed using Graphpad Prism software and EC₅₀ values were reported.

[3] = target: T1, cynomolgus monkey Siglec15-his protein; experiment: indirect ELISA on coated cynomolgus Siglec15-his
Method: as §1

[4] = target: T2, human Siglec15-Fc protein; experiment: competitive ELISA: biotin-labeled human Siglec15-Fc in solution, competitor coated benchmark
Method: The abilities of the anti-Siglec15 antibodies of the disclosure to block benchmark-human Siglec15 binding were measured in a competitive ELISA assay. Briefly, the benchmark was coated on 96-well micro plates at 2 μg/mL in PBS, 100 μl per well, and incubated for 2 hours at 37° C. Then plates were washed once with wash buffer, and blocked with 5% w/v non-fatty milk in PBST overnight at 4° C. The next day, the anti-Siglec15 antibodies of the disclosure or controls were diluted with biotin labeled human Siglec15-Fc protein (prepared in-house with SEQ ID NO: 19, 37 ng/ml in PBST with 2.5% w/v non-fatty milk), starting at 80 nM with a 4-fold serial dilution, and incubated at room temperature for 40 minutes. After plate washing 4 times, the antibody/Siglec15-Fc mixtures were added to benchmark coated plates, 100 μl per well. After incubation at 37° C. for 40 minutes, plates were washed 4 times again using wash buffer. Then the plates were added and incubated with 100 μl/well streptavidin conjugated HRP for 40 minutes at 37° C. Plates were washed again using wash buffer. Finally, TMB was added and the reaction was stopped using 1M H₂SO₄, and the absorbance of each well was read on a microplate reader using dual wavelength mode with 450 nm for TMB and 630 nm as the reference wavelength, then the OD (450-630) values were plotted against antibody concentration. Data was analyzed using Graphpad Prism software and IC₅₀ values were reported.

Row | Binder | IC50 [1] [nM] | EC50 [2] [nM] | EC50 [3] [nM] | IC50 [4] [nM]
1 | anti-Siglec15 benchmark (ch5G12) (antibody, human IgG1, kappa, V domains shown, ch5G12 (US 20190202912A1); also called BM; Siglec15-ch5G9) VH: QVQLQQPGAELVKPGASVKMSCKASGYTFTSYWITWVIQRPGQGLEWIGDIYCGSDTMHYNEKFKNKATLTVDTSSSTAYMQLSSLTSEDSAVYYCARWWDYGSSYDYFDYWGQGTTLTVSS VL: DIKMTQSPSSMYASLGERVTITCKASQDINSYLSWFQQKPGKSPKTLIYRANRLVDGVPSRFSGSGSGQDYSLTISSLEYEDMGIYYCLQYDEFPYTFGGGTKLEIKR | 1.57 | 0.313 | 0.652 | 0.229
2 | A2A5C7E8 (antibody, V domains shown, Fully human antibody from transgenic mouse hybridoma; also called A2A5C7E8-1) VH: EVQLVQSGAEVKKPGESLRISCKGSGYSFTTYWISWVRQMPGKGLEWMGLIDPSDSYTNYSPSFQGHVTISTDKSISTAYLQWSSLKASDTAMYYCARGGYYGSEEDYWGQGTLVTVSS VL: EIVLTQSPGTLSLSPGERATLSCRASQSVSSSRLAWFQQKSGQAPRLLIFDASSRATGIPDRFSGSGSGTDFTLTISRLEPEDFAVYYCQQYGSSPRTFGQGTKVEFK |  | 0.136 | 0.521 | 0.0387
3 | A2A5C7E8-2 (antibody, human IgG1, kappa, V domains shown, Variant of A2A5C7E8 modified in VH CDR2 (X1 = E)) VH: EVQLVQSGAEVKKPGESLRISCKGSGYSFTTYWISWVRQMPGKGLEWMGLIDPSESYTNYSPSFQGHVTISTDKSISTAYLQWSSLKASDTAMYYCARGGYYGSEEDYWGQGTLVTVSS VL: EIVLTQSPGTLSLSPGERATLSCRASQSVSSSRLAWFQQKSGQAPRLLIFDASSRATGIPDRFSGSGSGTDFTLTISRLEPEDFAVYYCQQYGSSPRTFGQGTKVEFKR |  | 0.15 |  | 0.0178
4 | A2A5C7E8-3 (antibody, human IgG1, kappa, V domains shown, Variant of A2A5C7E8 modified in VH CDR2 (X2 = K)) VH: EVQLVQSGAEVKKPGESLRISCKGSGYSFTTYWISWVRQMPGKGLEWMGLIDPSDSYTNYSPSFKGHVTISTDKSISTAYLQWSSLKASDTAMYYCARGGYYGSEEDYWGQGTLVTVSS VL: EIVLTQSPGTLSLSPGERATLSCRASQSVSSSRLAWFQQKSGQAPRLLIFDASSRATGIPDRFSGSGSGTDFTLTISRLEPEDFAVYYCQQYGSSPRTFGQGTKVEFKR |  | 0.146 |  | 0.0357
5 | B2D7H7A3C1 (antibody, V domains shown, Mouse monoclonal antibody from hybridoma; also called mouse B2D7H7A3C1) VH: QVQLQQSGAELVRPGTSVQMSCKAAGYTFTNYWIGWVKQRPGHGLEWVGDIHPGINYTNNNEKFRGKATLTADTSSNTAYMQLRGLTSDDSAIYYCARVDYDYDGSYIMDYWGQGTSVTVSS VL: QIVLSQSPALLSASPGEKVTMTCRASSSVSYMYWYQQKPGSSPKPWIYATSNLTSGVPARFSGSGSGTSYSLTISRVEAEDAATYFCQQWNSKPWTFGGGSKLEIR | 0.868 |  |  | 
6 | B2G12H3E8 (antibody, V domains shown, Mouse monoclonal antibody from hybridoma; also called mouse B2G12H3E8) VH: QVQLKQSGAELVRPGTSVQMSCKAVGYTFTNYWIGWVKQRPGHGLEWVGDIHPGINYTNNNEKFRGKATLTADTSSSTAYMQLRGLTSDDSAIYYCARVDYDYDGSYIMDYWGQGTSVTVSS VL: QIVLSQSPALLSASPGEKVTMTCRASSSVSYMYWYQQKPGSSPKPWIYATSNLTSGVPARFSGSGSGTSYSLTISRVEAEDAATYFCQQWNSKPWTFGGGSKLEIR | 0.954 |  |  | 
7 | B2H2H1H7 (antibody, V domains shown, Mouse monoclonal antibody from hybridoma; also called mouse B2H2H1H7; B2H2H1A7) VH: QVQLQQSGAELVRPGTSVQMSCKAAGYTFTNYWIGWVKQRPGHGLEWVGDIHPGINYTNNNEKFRGKATLTADTSSSTAYMQLRGLTSDDSAIYYCARVDYDYDGSYIMDYWGQGTSVTVSS VL: QIILSQSPALLSASPGEKVTMTCRASSSVSYMYWYQQKPGSSPKPWIYATSNLTSGVPARFSGSGSGTSYSLTISRVEAEDAATYFCQQWNSKPWTFGGGSRLEIR | 1.04 |  |  | 
8 | A1E10G7H9 (antibody, V domains shown, Fully human antibody from transgenic mouse hybridoma) VH: QVQLQESGPGLVKPSGTLSLTCAVSGGSISSSNWWHWVRQPPGKGLEWIGEIYHSGNTNYKPSLKSRVTISVDKSKNQFSLKLSSVTAADTAVYYCARDEGNGWSNAFDIWGQGTMVTVSS VL: ENVLTQSPGTLSLSPGERVTLSCRASQSVSSSYLAWYQQKPGQAPRFLIYGASGGATGIPDRFSGSGSGTDFTLTISRLEPEDFAVYYCQQYGSSPITFGQGTRLEIK |  |  | 0.509 | 
